# Source: patent CN110272489A (SHANGHAI JIANXIN BIOPHARMACEUTICALS LLC, dated 2019)
# Read-outs that look alike come from different tables or passages of the source.
# T1: 狨猴(marmoset) Tim-3蛋白 (狨猴(marmoset), UniProt F7I881 21-290)
# T1 sequence: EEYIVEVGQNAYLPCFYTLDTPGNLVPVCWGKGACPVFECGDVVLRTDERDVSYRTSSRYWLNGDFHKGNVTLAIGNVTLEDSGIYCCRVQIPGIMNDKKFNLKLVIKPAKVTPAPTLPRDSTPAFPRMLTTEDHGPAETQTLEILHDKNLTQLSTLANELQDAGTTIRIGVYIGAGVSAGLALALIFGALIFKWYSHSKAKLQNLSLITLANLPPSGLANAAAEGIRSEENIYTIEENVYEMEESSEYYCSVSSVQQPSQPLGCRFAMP
# Columns and labels:
# [1] = biological target: T2, 人TIM-3 (recombinant antigen of the ELISA of Example 3: TIM-3-hFc captured on goat-anti-hFc, or Tim-3-his … (human, UniProt Q8TDQ0 22-202)); assay: ELISA on human TIM-3 (Example 3)
# T2 construct: extracellular domain; also called 人TIM-3抗原; not shown: a His tag instead if Tim-3-his was coated
# [2] = biological target: T3, 人Tim-3 (antigen, analyte of the Biacore assay of Example 7) (human, UniProt Q8TDQ0 22-199); assay: SPR, Biacore T200, antibody captured on Protein A, TIM-3 as analyte, 1:1 Langmuir
# T3 construct: Antibody captured on Protein A chip, antigen TIM-3 flowed at 0-30 nM; also called 抗原TIM-3
# [3] = biological target: T2, 人TIM-3 (recombinant antigen of the …); assay: ELISA on human TIM-3 (Example 3); remark: listed apart in the source
# [4] = biological target: T2, 人TIM-3 (recombinant antigen of the …); assay: ELISA on human TIM-3, against ABTIM3 as reference
# [5] = biological target: T4, 人Tim-3 on CHO-K1 hTim-3+ cells (human, UniProt Q8TDQ0 22-301); assay: cell ELISA on fixed CHO-K1 hTim-3+ cells (Example 2)
# T4 construct: whole, on cells; Mature protein 22-301; also called hTim-3+细胞; 人Tim-3+细胞
# 猕猴(Macaca)Tim-3蛋白 [6] = biological target: 猕猴(Macaca)Tim-3蛋白 (猕猴(Macaca)); assay: ELISA, against ABTIM3 as reference
# [7] = biological target: T3, 人Tim-3 (antigen, analyte of the Biacore …); assay: SPR, Biacore, method of Example 7
# 猕猴(Macaca)Tim-3蛋白 [8] = biological target: 猕猴(Macaca)Tim-3蛋白 (猕猴(Macaca)); assay: ELISA (method of Example 3), Fig. 4a
# 狨猴(marmoset) Tim-3蛋白 = biological target: T1, 狨猴(marmoset) Tim-3蛋白; assay: ELISA (method of Example 3), Fig. 4b
EC50 [1],EC50 [5],Binder,also measured
0.212 nM,,"人源化ab17抗体 (antibody, human IgG4 S228P, kappa, V domains shown, Humanized, hIgG4-kappa) VH: EVQLVESGGGLVKPGGSLRLSCAASGFTFSDYYMTWVRQAPGKGLEWVASINYDGRNTYYLDSLKSRFTISRDNAKNSLYLQMNSLRAEDTAVYYCARGYYYYGSSPNYFDYWGQGTLVTVSS VL: DIQMTQSPSSLSASVGDRVTITCRASENIYSYLTWYQQKPGKSPKLLVYNAKTLAEGVPSRFSGSGSGTQFTLTISSLQPEDFATYYCQQHYGTPLTFGQGTKLEIKR",
0.21 nM,,"人源化ab23抗体 (antibody, human IgG4 S228P, kappa, V domains shown, Humanized, hIgG4-kappa) VH: EVQLVESGGGLVKPGGSLRLSCAASGFTFSDYYMTWVRQAPGKGLEWVASINYDGRNTYYLDSLKSRFTISRDNAKNILYLQMNSLRAEDTAVYYCARGYYYYGSSPNYFDYWGQGTLVTVSS VL: DIQMTQSPSSLSASVGDRVTITCRASENIYSYLTWYQQKPGKSPKLLVYNAKTLAEGVPSRFSGSGSGTQFSLTISSLQPEDFANYYCQQHYGTPLTFGQGTKLEIKR",
0.243 nM,,"人源化ab24抗体 (antibody, human IgG4 S228P, kappa, V domains shown, Humanized, hIgG4-kappa) VH: EVQLVESGGGLVKPGGSLRLSCAASGFTFSDYYMTWVRQAPGKGLEWVASINYDGRNTYYLDSLKSRFTISRDNAKNILYLQMNSLRAEDTAVYYCARGYYYYGSSPNYFDYWGQGTLVTVSS VL: DIQMTQSPSSLSASVGDRVTITCRASENIYSYLTWYQQKPGKSPKLLVYNAKTLAEGVPSRFSGSGSGTQFTLTISSLQPEDFATYYCQQHYGTPLTFGQGTKLEIKR",
0.198 nM,,"人源化ab18抗体 (antibody, human IgG4 S228P, kappa, V domains shown, Humanized, hIgG4-kappa) VH: EVQLVESGGGLVKPGGSLRLSCAASGFTFSDYYMTWVRQAPGKGLEWVASINYDGRNTYYLDSLKSRFTISRDNAKNSLYLQMNSLRAEDTAVYYCARGYYYYGSSPNYFDYWGQGTLVTVSS VL: DIQMTQSPSSLSASVGDRVTITCRASENIYSYLTWYQQKPGKAPKLLIYNAKTLAEGVPSRFSGSGSGTDFTLTISSLQPEDFATYYCQQHYGTPLTFGQGTKLEIKR",
0.233 nM,,"人源化ab30抗体 (antibody, human IgG4 S228P, kappa, V domains shown, Humanized, hIgG4-kappa) VH: EVQLVESGGGLVKPGGSLRLSCAASGFTFSDYYMTWVRQAPGKGLEWVSSINYDGRNTYYLDSLKSRFTISRDNAKNSLYLQMNSLRAEDTAVYYCARGYYYYGSSPNYFDYWGQGTLVTVSS VL: DIQMTQSPSSLSASVGDRVTITCRASENIYSYLTWYQQKPGKSPKLLVYNAKTLAEGVPSRFSGSGSGTQFSLTISSLQPEDFANYYCQQHYGTPLTFGQGTKLEIKR",
0.183 nM,,"mab15-c (嵌合抗体, hIgG4-κ) (antibody, V domains shown, Chimeric antibody: mab15 variable regions with human IgG4 / kappa constant regions) VH: EVKLVESEGGLVQPGSSMKLSCTASGFTFSDYYMTWVRQVPEKGLEWVASINYDGRNTYYLDSLKSRFIISRDNAKNILYLQMSSLKSEDTATYYCARGYYYYGSSPNYFDYWGQGTTLTVSS VL: DIQMTQSPASLSASVGETVTITCRASENIYSYLTWYQQKQGKSPQLLVYNAKTLAEGVPSRFSGSGSGTQFSLRINSLQPEDFGNYYCQQHYGTPLTFGAGTKLELKR","Kd [2]: 0.31 nM; koff [2]: 0.000106 s⁻¹; kon [2]: 344000 M⁻¹ s⁻¹; EC50 [3]: 0.158 nM; fold better than the reference antibody (ratio of EC50, reference/mab15-c) [4]: 2.38 fold"
0.145 nM,0.151 nM,"人源化ab16 抗体 (antibody, human IgG4 S228P, kappa, V domains shown, Humanized, hIgG4-kappa) VH: EVQLVESGGGLVKPGGSLRLSCAASGFTFSDYYMTWVRQAPGKGLEWVASINYDGRNTYYLDSLKSRFTISRDNAKNSLYLQMNSLRAEDTAVYYCARGYYYYGSSPNYFDYWGQGTLVTVSS VL: DIQMTQSPSSLSASVGDRVTITCRASENIYSYLTWYQQKPGKSPKLLVYNAKTLAEGVPSRFSGSGSGTQFSLTISSLQPEDFANYYCQQHYGTPLTFGQGTKLEIKR",
0.184 nM,0.112 nM,"人源化ab32抗体 (全人源化抗体) (antibody, human IgG4 S228P, kappa, V domains shown, Fully humanized (no back mutations), hIgG4-kappa) VH: EVQLVESGGGLVKPGGSLRLSCAASGFTFSDYYMTWVRQAPGKGLEWVSSINYDGRNTYYLDSLKSRFTISRDNAKNSLYLQMNSLRAEDTAVYYCARGYYYYGSSPNYFDYWGQGTLVTVSS VL: DIQMTQSPSSLSASVGDRVTITCRASENIYSYLTWYQQKPGKAPKLLIYNAKTLAEGVPSRFSGSGSGTDFTLTISSLQPEDFATYYCQQHYGTPLTFGQGTKLEIKR",fold weaker than the positive control antibody (猕猴(Macaca)Tim-3蛋白 [6]): ~100 fold; koff [7]: 0.000296 s⁻¹; EC50 (猕猴(Macaca)Tim-3蛋白 [8]): 11 nM
,0.15 to 0.23 nM,"ABTIM3 (阳性对照抗体) (antibody, V domains shown) VH: QVQLQQPGAELVKPGASVKMSCKASGYTFTSYNMHWIKQTPGQGLEWIGDIYPGNGDTSYNQKFKGKATLTADKSSSTVYMQLSSLTSEDSAVYYCARVGGAFPMDYWGQGTSVTVSS VL: DIVLTQSPASLAVSLGQRATISCRASESVEYYGTSLMQWYQQKPGQPPKLLIYAASNVESGVPARFSGSGSGTDFSLNIHPVEEDDIAIYFCQQSRKDPSTFGGGTKLEIK",EC50 (狨猴(marmoset) Tim-3蛋白): 0.4 nM; EC50 [3]: 0.376 nM; EC50 (猕猴(Macaca)Tim-3蛋白 [8]): 0.14 nM
